Experimental findings from the RNAGym collection of RNA variant scans (doi:10.1073/pnas.2313332121) are described below.

The chains are these.
B1: TPR t1 (parent)
chain: GACCAAUCUGCCCUCAGAGCUCGAGAACAUCUUCGGAUGCAGAGGAGGCAGGCUUCGGUGGCGCGAUAGCGCCAACGUCCUCAACCUCCAAUGCAUCCCACCACAUGAUGAUGCCUGAAGAGCCUUGGUUUUUUG

The data set covers variants of B1. Put plainly: polymerase ribozyme fitness, log enrichment relative to wild type (log ratio); higher = more active; in vitro selection for triplet polymerase activity. The gist of the method:
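Each subunit of a heterodimeric triplet polymerase ribozyme was mutagenized into a library by PCR, transcribed, and subjected to one round of in vitro selection, run in triplicate. Libraries were annealed with a biotinylated primer, the partner subunit and triplets, incubated frozen at −7 °C, and extended constructs were gel-excised, captured on streptavidin beads and recovered by RT-PCR. Input and output libraries were sequenced on Illumina, keeping genotypes with ≥10 input reads and ≥1 read per output. Fitness is log base 2 of genotype enrichment divided by wild-type enrichment, from inverse-variance-weighted replicate averages.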
For GACCAAUCUGCCCUCAACGCUCGAGAACAUCUUCGGAUGCAGAGGAGGCAGGCUUCGGUGGCGCGAUAGCGCCAACGUCCUCAACGUCCAAUGCAUCCCACCACAUGAUGAUGCCUGAAGAGCCUUGGUUUUUUG, the “polymerase ribozyme fitness (log ratio)” value was -3.63.

Take GACCAAUCUGCCCUCAAAGCUCGAGAACAUCUUCGGAUGCAGAGGAGGCAGGCUUCGGUGGGACGAUAGCGCCCACGUCCUCAACCUCCCAUGCAUCCCACCACAUGAGGAUGCCUGAAGAGCCUUGGUUUUUUG: the “polymerase ribozyme fitness (log ratio)” value was -5.9.

For the variant GACCAAUCUGCCCUCAAAGCUCGAGAACAUCUUCGGAUGCCGUCGAGGCAGGCUUCGGUGGCGCGAUAGCGCCAACGUCCUCAACCUCCAAUGCAUCCCACCACAUGAUGAUGCCUGAAGAGCCUUGGUUUUUUG, the “polymerase ribozyme fitness (log ratio)” value was -5.92.

In the case of GACCAAUCUGCCCUCAAAGCUCGAGAACAUCUUCGGAUGCAGAGGAGGCAGGCUUCGGUGGCGCGAUAGCGCCAACGUCCUCAUCCUCCAAUGCAUCCCACCACAUGAUGAUGCCUGAAGAGCCUUGGUUUUUUG, the “polymerase ribozyme fitness (log ratio)” value was -2.87.

As for GACCAAUCUGCCCUCAACGCUUGAGAACAUCUUCAGAUGCAGAGGAGGCAGGCUUCGGUGGCGCGAUAGAGCCAACGUGCUCAACCUCCGAUGCAUCCAACCACAUGAUGAUGCCUGAAGAGCGUUGGUUUUUUG, the “polymerase ribozyme fitness (log ratio)” value was -5.86.

In the case of GACCAAUCUGCCCUCAAAGCUCGAGAACAUCUUCGGUUGCAGAGGAGGCAGGCUUCGGUGGCGCGAUAGCGCCAACGUCCUCAACCUCCAAUGCAUCCCACCACAUGAUGAUGCUUGAAGAGCCUUGGUUUUUUG, the “polymerase ribozyme fitness (log ratio)” value was determined as 0.842.

Turning to GACCAAUCUGCCCUCAAAGCUCGAGAACAUCUUCGGAUGCAGAGGAGGCAGGCUUCGGUGGCGCGAUAGCGCCAACGUCCUCGACCUCCAAUGCAUCCCACCACAUGAUGAUGCCUGAAGAGCCUUGGUUUUUUG, the “polymerase ribozyme fitness (log ratio)” value was -3.95.

Consider GACCAAUCUGCCCUCAAAGCUCGAGAACAUCUUCGGAUGCAGAGGAGGCAGGCUUCGGUGGCGCGAUAGCGCCAACGUCCUCACCCACCAAUGCAGCCCACCACAUGAUGAUGCCUGAAGAGCCUUGGUUUUUUG, for which the “polymerase ribozyme fitness (log ratio)” value was -4.16.

Turning to GACCAAUCUGCCCUCAAAGCUAGAGAACAUCUUCGGAUGCAGAGGAGGCAGGCUUCGGUGGCGCGAUAGCGCCAACGUCCUCAACCUCCAAUGCAUCCCACCACAUGAUGAUGCCUGAAGAGCCUUGGUUUUUUG, the “polymerase ribozyme fitness (log ratio)” value is -5.66.

For the variant GACCAAUCUGCCCUCAAAGCUCGAGAACAUCUUCGGAUGCAGAGGAGGCAGGCUUGGGUGGCGCGAUAGCGCCAACGUCCUCAACCUCCAAUGCAUCCCACCACAUGAUGAUGCCUGAAGAGCCUUGGUUUUUUG, the “polymerase ribozyme fitness (log ratio)” value was -3.4.

With GACCAAUCUGCCCUCAAAGCUCGAGAACAUCUUCGGAUGCAGAGGAGGCAGGCUUCGGUGGCGCGAUAGCGCCUACGUCCUCAACCUCCAAUGCAUCCCACCACAUGAUGAUGCCUGAAGAGCCUUGGUUUUUUG, the “polymerase ribozyme fitness (log ratio)” value was -4.06.

As to GACCAAUCUGCCCUCAAAGCUCGAGACCAUCUUCGGAUGCAGAGGAGGCAGGCUUCCGUGGCGCGAUAGCGCAAACGUCCUCAACCUCCAAUUCAUCCCACCACAUGAUGAUCCCUGCAGAGCCAUGGUUUUUUG, the “polymerase ribozyme fitness (log ratio)” value is -7.69.

GACCAAUCUGCCCUCAAAGCUCGAGAACAUCUUCGGAUGCAGAGGAGGCAGGCUUAGGUGGCGCGAUAGCGCCAACGUCCUCAACCUCCAAUUCAUCCCACCACAUGAUGAUGCCUGAAGAGCCUUGGUUUUUUG: the “polymerase ribozyme fitness (log ratio)” value is -4.99.

For the variant GACCAAUCUGCCCUCAAAGCUCGAGAACAUCUUCGGAUGCAGAGGAGGCAGGCUUCGGUGGCGCGAUAGAGCCAACGUCCUCAACCUCCAAUGCAUCCCACCACAUGAUGAUGCCUGAAGAGCCUUGGUUUUUUG, the “polymerase ribozyme fitness (log ratio)” value is -4.58.

GACCAAUCUGCCCUCAAAGCUCGAGAACAUCUUCGGAUGCAGAGGAGGCAGGCUUCGGUGGCGCGAUAGCGCCAACGUCCUCAACCUCCACUGCAUCCCACCACAUGAUGAUGCCUGAAGAGCAUUGGUUUAUUG: the “polymerase ribozyme fitness (log ratio)” value is -0.557.

As for GACCAAUCUGCCCUCAAAGCUCGAGAACAUCUUCGGAUGCAGAGGAGGCAGGCUUCGGUGGCGCGAUAGCGCCAACGUCCUCAACCUCCCAUGCGUCCCACCAUAUGAUGAUGCCUGAUGAGCCUUGGUUUUUUG, the “polymerase ribozyme fitness (log ratio)” value is -3.

With GACCAAUCUGCCCUCAAAGCUCGAGAACAUCUUUGGAUGCAGAGGAGGCAGGCUUCGGUGGCGCGAUAGCGCCAACGUCCUCAACCUCCAAUGCAUCUCACCACAUGAUGAUGCCUGAAGAGCAUUGGUUUUUUG, the “polymerase ribozyme fitness (log ratio)” value is -5.98.

For the variant GACCAAUCUGCCCUCAAAGCUCGAGAACAUCUUCGGAUGCAGAGGAGGCAGGCUUCGGUGGAGCGAUAGCGCCAACGUCCUCAACCUCCAAUGCAUCCCACCACAUGAUGAUGCCUGAAGAGCCUUGGUUUUUUG, the “polymerase ribozyme fitness (log ratio)” value is -4.08.

As for GACCAAUCUGCCCUCAAAGCUCGAGAACAUCUUCGGAUGCAGAGGAGGCAGGCUUCGGUGGUGCGAUAGCGCCAACGUCCUCAACCUCCAAUGCAUCCCACCACAUGAUGAUGCCUGAAGAGCCUUGGUUUUUUG, the “polymerase ribozyme fitness (log ratio)” value is -3.04.

Take GACCAAUCUGCCCUCAAAGCUCGAGAAUAUCUUCGGAUGCAGAGGAGGCAGGCUUCGGUGGUGCGAUAGCGCCAACGUCCUCAACCUCCAAUGCAUCCCACCACAUGAAGAUGCCGGAAGAGCCUUGGUUUUUUG: the “polymerase ribozyme fitness (log ratio)” value was -5.8.

Turning to GACCAAUCUGCCCUCAAAGCUCGAGAAGAUCUUCGGAUGCAGAGGAGACAGGCUUCGGUGGCGCGAUAGCGCCAACGUCCUCAACCUCCAAUGCAGCCCGCCACAUGAUGAGGCCUGAAGCGCCUUGGUUUUUUG, the “polymerase ribozyme fitness (log ratio)” value was -6.43.
